Assay [1] deals with T1, PCSK9 (species not stated, Table 7 assay) (Pan troglodytes (Chimpanzee); Homo …, UniProt A8T644 31-152; Q8NBP7 153-692).
T1 construct: kept apart from m1 and m2
The assay is described as follows: SPR Biacore 2000, IgG on anti-human Fc, PCSK9 injected, pH 6.0. The protocol: (§1) Affinity and kinetic parameters for PCSK9 antibodies h5A10 and 5L1721H23_{—}6L3H3 as well as PCSK9 antibody H1M300N (see US2010/0166768, e.g., at Table 7). All experiments were performed on a Biacore 2000 biosensor.
(§2) An anti-human Fc sensor chip was prepared by activating all flow cells of a Biacore CM4 sensor chip with a 1:1 (v/v) mixture of 400 mM EDC and 100 mM NHS for 7 minutes, at a flow rate of 10 μL/min. An anti-human Fc reagent (Goat F(AB′)2 Fragment to Human IgG Fc, Cappel Catalog #: 55053) was diluted to 60 μg/mL in 10 mM Sodium Acetate pH 5.0 and injected on all flow cells for 7 minutes at 20 μL/min. All flow cells were blocked with 100 mM ethylenediamine in 150 mM Borate buffer pH 8.5 for 7 minutes at 10 μL/min.
(§3) The experiments were performed at pH 6.0 and 7.4 using sample and running buffers of 10 mM Sodium Phosphate, 150 mM Sodium Chloride, 0.05% Tween-20, pH 6 and 10 mM Sodium Phosphate, 150 mM Sodium Chloride, 0.05% Tween-20, pH 7.4, respectively.
In general terms: Surface plasmon resonance follows binding to a sensor surface in real time, without labels.

In assay [2] the target is T1, PCSK9 (species not stated, Table 7 …). The assay is described as follows: SPR Biacore 2000, IgG on anti-human Fc, PCSK9 injected, pH 7.4. The protocol:
as §1, §2, §3

Assay [3] deals with T2, human PCSK9 (human, UniProt Q8NBP7 31-692, limits assumed).
T2 construct: also called hPCSK9; huPCSK9
T2 sequence (Q8NBP7 31-692 limits assumed): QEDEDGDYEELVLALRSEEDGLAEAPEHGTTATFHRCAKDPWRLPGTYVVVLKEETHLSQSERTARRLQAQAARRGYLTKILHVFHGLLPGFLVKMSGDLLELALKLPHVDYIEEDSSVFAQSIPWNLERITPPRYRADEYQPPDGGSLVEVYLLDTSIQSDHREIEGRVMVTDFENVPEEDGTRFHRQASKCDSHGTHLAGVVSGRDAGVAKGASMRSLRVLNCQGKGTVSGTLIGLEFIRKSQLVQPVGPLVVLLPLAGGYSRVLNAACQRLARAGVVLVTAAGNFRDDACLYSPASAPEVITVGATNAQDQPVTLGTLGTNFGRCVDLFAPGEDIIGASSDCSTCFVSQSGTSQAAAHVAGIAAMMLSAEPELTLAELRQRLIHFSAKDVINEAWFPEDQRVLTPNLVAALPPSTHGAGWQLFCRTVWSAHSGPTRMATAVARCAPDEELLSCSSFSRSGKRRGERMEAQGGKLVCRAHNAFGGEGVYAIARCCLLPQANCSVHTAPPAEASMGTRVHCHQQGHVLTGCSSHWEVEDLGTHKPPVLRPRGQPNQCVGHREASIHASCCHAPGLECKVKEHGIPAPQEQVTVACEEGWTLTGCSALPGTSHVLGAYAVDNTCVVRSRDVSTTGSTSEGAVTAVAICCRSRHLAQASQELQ
The assay is described as follows: SPR Biacore 3000, KD at pH 5.5 over KD at pH 7.4. The text has this: (§4) These antibodies were expressed and purified for determination of their KD at 7.4 and their KD ratio of pH5.5/pH 7.4, as measured on a surface plasmon resonance Biacore 3000 biosensor equipped with a research-grade sensor chip using HBS-EP running buffer (Biacore AB, Uppsala, Sweden—now GE Healthcare). Rabbit polyclonal anti-Ms IgGs were amine-coupled at saturating levels onto the chip using a standard N-hydroxysuccinimide/ethyldimethylaminopropyl carbodiimide (NHS/EDC) chemistry. The buffer was switched to HBS-EP+1 mg/mL BSA+1 mg/mL CM-dextran. Full-length PCSK9 IgGs were diluted to about 15 μg/mL and captured for 1 min at 5 μL/min to give levels of about 500 RU per flow cell, leaving one blank to serve as a reference channel. […] Dissociation was monitored for 5 min. The chip was regenerated after the last injection of each titration with two 30 sec pulses of 100 mM phosphoric acid. Buffer cycles provided blanks for double-referencing the data, which were then fit globally to a simple binding model using Biaevaluation software v.4.1. Affinities were deduced from the quotient of the kinetic rate constants (KD=koff/kₒₙ).

The target of assay [4] is T3, mouse PCSK9 (mouse, UniProt Q80W65 35-694, limits assumed).
T3 construct: also called mPCSK9; msPCK9
T3 sequence (Q80W65 35-694 limits assumed): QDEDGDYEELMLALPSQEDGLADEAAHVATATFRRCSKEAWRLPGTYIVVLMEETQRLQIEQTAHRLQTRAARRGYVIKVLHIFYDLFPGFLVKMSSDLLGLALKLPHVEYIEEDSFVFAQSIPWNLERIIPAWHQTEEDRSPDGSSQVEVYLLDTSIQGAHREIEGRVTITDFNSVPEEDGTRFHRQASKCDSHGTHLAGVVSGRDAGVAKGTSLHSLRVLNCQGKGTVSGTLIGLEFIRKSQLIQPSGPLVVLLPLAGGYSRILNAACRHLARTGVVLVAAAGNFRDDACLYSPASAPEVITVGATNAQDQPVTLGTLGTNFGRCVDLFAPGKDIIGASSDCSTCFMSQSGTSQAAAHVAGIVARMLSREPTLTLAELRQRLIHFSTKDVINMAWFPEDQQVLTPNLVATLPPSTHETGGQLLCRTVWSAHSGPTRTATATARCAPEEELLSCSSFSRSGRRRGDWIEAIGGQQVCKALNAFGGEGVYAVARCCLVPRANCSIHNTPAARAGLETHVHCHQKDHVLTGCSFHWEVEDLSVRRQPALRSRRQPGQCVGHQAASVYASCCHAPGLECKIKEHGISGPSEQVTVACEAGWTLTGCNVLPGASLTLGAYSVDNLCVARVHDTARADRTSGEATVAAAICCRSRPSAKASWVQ
The experiment in a line: SPR Biacore 3000, KD at pH 5.5 over KD at pH 7.4.
Description: as §4

In assay [5] the target is T2, human PCSK9. The assay is described as follows: SPR Biacore 3000, captured IgG, hPCSK9 injected, pH 5.5.
Description: as §4

The target in assay [6] is T2, human PCSK9. The assay is described as follows: SPR Biacore 3000, captured IgG, hPCSK9 injected, pH 7.4.
Description: as §4

The target in assay [7] is T3, mouse PCSK9. The experiment in a line: SPR Biacore 3000, captured IgG, mPCSK9 injected, pH 5.5.
Description: as §4

Assay [8] deals with T3, mouse PCSK9. The experiment in a line: SPR Biacore 3000, captured IgG, mPCSK9 injected, pH 7.4.
Description: as §4

Assay [9] addresses T4, human IgE-Fc (Ch2-Ch3-Ch4), minimally biotinylated (human, UniProt P01854-1 105-428, limits assumed, minimally biotinylated with EZ-Link NHS-LC-LC-biotin (sites not given)).
T4 construct: domain: Ch2-Ch3-Ch4; Captured on NeutrAvidin chip; also called IgE construct; B-IgE
The experiment in a line: SPR Biacore T200, KD at pH 6.0 over KD at pH 7.4. The protocol: (§5) All Biacore experiments were performed using two of the four flow cells (1&2 or 3&4) of the sensor chip in parallel. The downstream flow cell was used as analysis flow cell while the other flow cell was used as a reference surface. Thus, biotinylated IgE (B-IgE) was captured on the analysis flow cell and every purified Fab fragment was injected over both. The sensorgram from the reference flow cell was subtracted from that of the analysis flow cell.
(§6) Following capture of B-IgE, a purified Fab fragment was injected at 30 μL/min on analysis and reference flow cells in a series of injections from low to high concentration. The top concentration of Fab ranged from 30 nM to 200 nM and the dilution factor was 3-fold. Each Fab dilution was injected for 2 minutes, followed by a final dissociation time of 30 minutes after the last injection. A similar set of injections was performed with running buffer in place of Fab for double-referencing purposes (double-referencing as described in Myszka, J Mol Recognit 12: 279-284, 1999). The double-referenced sensorgrams were fit globally to a simple 1:1 Langmuir with mass transport binding model.
(§7) The experiments were performed at pH 6.0 and 7.4 using sample and running buffers of 10 mM Sodium Phosphate, 150 mM Sodium Chloride, 0.05% Tween-20, 1 mg/mL BSA, pH 6 and 10 mM Sodium Phosphate, 150 mM Sodium Chloride, 0.05% Tween-20, 1 mg/mL BSA, pH 7.4, respectively.

Assay [10] has as its target T4, human IgE-Fc (Ch2-Ch3-Ch4), minimally …. The experiment in a line: SPR Biacore T200, kd at pH 6.0 over kd at pH 7.4. The protocol:
(§8) A biotin-capture surface was prepared by immobilization of NeutrAvidin: all flow cells of a Biacore CM4 sensor chip were activated with a 1:1 (v/v) mixture of 400 mM EDC and 100 mM NHS for 7 minutes, at a flow rate of 10 μL/min. NeutrAvidin (Pierce, product #: 31000) was diluted to 100 μg/mL in 10 mM Sodium Acetate pH 4.5 and injected on all flow cells for 7 minutes at 20 μL/min. All flow cells were blocked with 100 mM Ethylenediamine in 150 mM Borate buffer pH 8.5 for 7 minutes at 10 μL/min.
as §6, §7

Assay [11] shares this target. The assay is described as follows: SPR Biacore T200, biotin-IgE-Fc captured, Fab injected, 25 C, pH 6.0. The protocol: as §8, §6, §7
Assay [12] shares this target. The experiment in a line: SPR Biacore T200, biotin-IgE-Fc captured, Fab injected, 25 C, pH 7.4. The protocol: as §5, §6, §7

Where only a bound is given, the exact number is not on record here.

T1 sequence (A8T644 31-152 limits assumed, chain 1 of 2): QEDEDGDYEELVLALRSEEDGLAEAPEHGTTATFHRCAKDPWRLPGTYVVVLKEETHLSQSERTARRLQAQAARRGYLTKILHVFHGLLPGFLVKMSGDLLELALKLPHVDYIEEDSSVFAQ
T1 sequence (A8T644 other isoform, or with tags, fused parts or gaps limits assumed, chain 2 of 2): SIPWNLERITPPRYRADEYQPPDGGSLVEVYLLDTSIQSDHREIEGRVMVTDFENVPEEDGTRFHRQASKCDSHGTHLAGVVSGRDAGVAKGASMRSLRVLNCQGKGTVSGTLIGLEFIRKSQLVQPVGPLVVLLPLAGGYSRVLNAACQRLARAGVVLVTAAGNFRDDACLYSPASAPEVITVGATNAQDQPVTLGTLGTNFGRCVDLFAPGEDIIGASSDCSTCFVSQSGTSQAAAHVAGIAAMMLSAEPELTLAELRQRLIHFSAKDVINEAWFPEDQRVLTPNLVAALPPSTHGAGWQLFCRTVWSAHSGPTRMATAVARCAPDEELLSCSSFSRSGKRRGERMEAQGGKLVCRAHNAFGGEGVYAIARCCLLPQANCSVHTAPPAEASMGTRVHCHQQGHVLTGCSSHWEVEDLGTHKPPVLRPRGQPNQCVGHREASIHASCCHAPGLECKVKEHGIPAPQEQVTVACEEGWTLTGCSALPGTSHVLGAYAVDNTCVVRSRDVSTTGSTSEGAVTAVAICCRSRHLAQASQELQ
T4 sequence (P01854 other isoform, or with tags, fused parts or gaps limits assumed): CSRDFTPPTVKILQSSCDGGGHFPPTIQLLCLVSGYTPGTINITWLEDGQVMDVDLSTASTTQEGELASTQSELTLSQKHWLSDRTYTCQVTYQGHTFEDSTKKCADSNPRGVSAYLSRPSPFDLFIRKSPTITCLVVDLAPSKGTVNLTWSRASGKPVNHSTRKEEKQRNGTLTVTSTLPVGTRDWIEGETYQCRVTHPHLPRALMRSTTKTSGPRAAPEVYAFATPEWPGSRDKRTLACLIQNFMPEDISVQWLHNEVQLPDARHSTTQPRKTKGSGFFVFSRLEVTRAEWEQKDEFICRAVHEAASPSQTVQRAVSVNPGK

B1: h5A10 (antibody, V domains shown)
VH: QVQLVQSGAEVKKPGASVKVSCKASGYTFTSYYMHWVRQAPGQGLEWMGEINPSGGRTNYNEKFKSRVTMTRDTSTSTVYMELSSLRSEDTAVYYCARERPLYAMDYWGQGTTVTVSS
VL: DIQMTQSPSSLSASVGDRVTITCKASQDVSTAVAWYQQKPGKAPKLLIYSASYRYTGVPSRFSGSGSGTDFTFTISSLQPEDIATYYCQQRYSTPRTFGQGTKLEIK
notes: In the histidine scan it was used as a Fab with a histidine tag at the C-terminus of CH1; also called 5A10 hu frame
What is called Kd is the free concentration of one partner at which half of the binding sites on the other are occupied at equilibrium, for simple one-to-one binding. The low end stands for tighter binding, the high end for weaker binding. Broadly, the koff is the first-order rate constant of dissociation. For orientation: kon means a measure of how fast the partners come together. Higher therefore signals faster complex formation. In [1], B1 came in with a Kd of under 0.181 nM, a koff of under 6e-05 s⁻¹, a kon of 331000 M⁻¹ s⁻¹ and a t1/2 of under 3.22 h. Also, in assay [2], the Kd is under 0.249 nM, the koff is under 6e-05 s⁻¹, the kon came to 241000 M⁻¹ s⁻¹ and the t1/2 was under 3.22 h.

B2: 6L21H2335 (antibody, V domains shown)
VH: QVQLVQSGAEVKKPGASVKVSCKASGYTFTSYYMHWVRQAPGQGLEWMGEIHPFGGRTNYNEKFKSRVTMTRDTSTSTVYMELSSLRSEDTAVYYCARERPLHASDLWGQGTTVTVSS
VL: DIQMTQSPSSLSASVGDRVTITCRASQGISSALAWYQQKPGKAPKLLIYHASYRYTGVPSRFSGSGSGTDFTFTISSLQPEDIATYYCQQRYSLWRTFGQGTKLEIK
For B2, the “KD ratio pH 5.5/7.4” value is 2.9 with human PCSK9 [3] and 2.4 with mouse PCSK9 [4]. Besides, the Kd was found to be 363 nM in the assay with human PCSK9 [5], 126 nM with human PCSK9 [6], 451 nM in the assay with mouse PCSK9 [7] and 191 nM with mouse PCSK9 [8]. For the same molecule, the koff with human PCSK9 [5] turned out to be 0.238 s⁻¹; with human PCSK9 [6] it was 0.00733 s⁻¹; with mouse PCSK9 [7], 0.237 s⁻¹; with mouse PCSK9 [8], 0.0172 s⁻¹. Moreover, the kon with human PCSK9 [5] amounted to 655000 M⁻¹ s⁻¹; in the assay with human PCSK9 [6], 58100 M⁻¹ s⁻¹; in the assay with mouse PCSK9 [7] it was 526000 M⁻¹ s⁻¹; with mouse PCSK9 [8], 89900 M⁻¹ s⁻¹.

B3: anti-IgE antibody 5.948-H100Y (Fab) (Fab, V domains shown)
VH: QVQLVQSGAEVKKPGASVKVSCKASGYTFTSYDINWVRQATGQGLEWMGWMDPNSGNTGYAQKFQGRVTMTRNTSISTAYMELSSLRSEDTAVYYCARGYYDSDGYYSFSGMDVWGQGTTVTVSS
VL: not shown
notes: Injected as purified Fab fragment
With B3, the “KD ratio pH 6.0/pH 7.4” value in assay [9] came out at 3.1. For the same molecule, in assay [10], the “kd ratio pH 6/pH 7.4” value turned out to be 3.03. In [11], this molecule displayed a Kd of 0.149 nM, a koff of 0.000152 s⁻¹ and a kon of 1.02e+06 M⁻¹ s⁻¹. In addition, in assay [12], the Kd was determined as 0.0487 nM, the koff is 5.01e-05 s⁻¹ and the kon was determined as 1.03e+06 M⁻¹ s⁻¹.

B4: H25H100Y (Fab) (Fab, V domains shown)
VH: QVQLVQSGAEVKKPGASVKVSCKASGYTFTSYDINWVRQATGQGLEWMGWMDPHSGNTGYAQKFQGRVTMTRNTSISTAYMELSSLRSEDTAVYYCARGYYDSDGYYSFSGMDVWGQGTTVTVSS
VL: not shown
With B4, in assay [9], the “KD ratio pH 6.0/pH 7.4” value was determined as 8. The “kd ratio pH 6/pH 7.4” value in assay [10] amounted to 7.66. In assay [11], this molecule returned a Kd of 5.08 nM, an off-rate (koff) of 0.00151 s⁻¹ and a kon of 298000 M⁻¹ s⁻¹. In assay [12], this molecule yielded a Kd of 0.634 nM, a koff of 0.000197 s⁻¹ and a kon of 311000 M⁻¹ s⁻¹.

B5: H17H25H100Y (Fab) (Fab, V domains shown)
VH: QVQLVQSGAEVKKPGASVKVSCKASGYTFTSHDINWVRQATGQGLEWMGWMDPHSGNTGYAQKFQGRVTMTRNTSISTAYMELSSLRSEDTAVYYCARGYYDSDGYYSFSGMDVWGQGTTVTVSS
VL: not shown
For the molecule B5, the “KD ratio pH 6.0/pH 7.4” value in assay [9] worked out at 8.6. Further, in [10], the “kd ratio pH 6/pH 7.4” value stood at 8.63. For the same molecule, in assay [11], binding was characterised by a dissociation constant (Kd) of 16.3 nM, the koff was found to be 0.00364 s⁻¹ and the kon came to 223000 M⁻¹ s⁻¹. Further, in assay [12], the equilibrium dissociation constant (Kd) turned out to be 1.9 nM, the koff stood at 0.000422 s⁻¹ and the kon was determined as 222000 M⁻¹ s⁻¹.

B6: L38H312H100Y (Fab) (Fab, V domains shown)
VH: QVQLVQSGAEVKKPGASVKVSCKASGYTFTSYDINWVRQATGQGLEWMGWMDPNSGNTGYAQKFQGRVTMTRNTSISTAYMELSSLRSEDTAVYYCARGYYDSDGYYSFHGMDVWGQGTTVTVSS
VL: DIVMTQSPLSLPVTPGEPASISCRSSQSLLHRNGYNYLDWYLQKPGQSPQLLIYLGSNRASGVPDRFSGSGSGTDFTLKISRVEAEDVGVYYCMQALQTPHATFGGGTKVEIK
On to B6, for which the “KD ratio pH 6.0/pH 7.4” value in assay [9] amounted to 7. Also, in assay [10], the “kd ratio pH 6/pH 7.4” value came to 11.3. Moreover, in assay [11], the Kd amounted to 37.1 nM, the koff worked out at 0.0122 s⁻¹ and the kon turned out to be 329000 M⁻¹ s⁻¹. Also, in assay [12], the Kd was determined as 5.33 nM, the dissociation rate constant (koff) stood at 0.00108 s⁻¹ and the association rate constant (kon) was determined as 202000 M⁻¹ s⁻¹.

For the origin of these results see patent US20150266974A1 (RINAT NEUROSCIENCE, published 2015).
